The target in this experiment is T1, 金黄色葡萄球菌肠毒素B (Staphylococcus aureus, UniProt P01552 28-266).
T1 construct: also called SEB
T1 sequence: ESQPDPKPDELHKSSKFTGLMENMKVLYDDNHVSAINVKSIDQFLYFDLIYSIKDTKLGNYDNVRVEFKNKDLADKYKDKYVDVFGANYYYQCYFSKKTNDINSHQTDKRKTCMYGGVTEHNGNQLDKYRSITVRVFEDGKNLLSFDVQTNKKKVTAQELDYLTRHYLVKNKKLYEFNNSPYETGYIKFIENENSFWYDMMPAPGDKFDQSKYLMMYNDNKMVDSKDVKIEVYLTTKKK
The experiment is described as follows: phage ELISA on coated SEB, HRP anti-M13 detection.

B1: 噬菌体克隆B7 (VHH)
VHH: ESGGGLVQAGGSLRLSCKVSGFNFREHALAWFRQAPGKEREGVSCIRGSGDYTTYADSVKGRFTISRDNAQNTLYLQMNSLRPEDTAMYYCAAARYARYYPNNCLDSAEYGYWGQGTLVTVS
notes: also called B7克隆
Regarding B1, the binding result is listed as “binds”.

(Values after patent publication CN110526968A (UNIV NORTHWEST A&F, dated 2019).)
